Sequences and labels used below:
B1: CPEB3 Ribozyme (parent)
chain: GGGGGCCACAGCAGAAGCGUUCACGUCGCGGCCCCUGUCAGAUUCUGGUGAAUCUGCGAAUUCUGCUGU

The series covers variants of B1. The series can be described thus: self-cleavage, relative activity (ratio to wild type); higher = more cleavage; co-transcriptional.
As to UGGGGCCACAGCAGAAGCGUUCACGUCGCGACCCCUGUCAGAUUCUGGUGAAUCUGCGAAUUCUGCUGU [G1U G31A], the self-cleavage came out at 0.0918. Next, UGGGGCCACAGCAGAAGCGUUCACGUCGCGCCCCCUGUCAGAUUCUGGUGAAUCUGCGAAUUCUGCUGU [G1U G31C]: 0.0835; UGGGGCCACAGCAGAAGCGUUCACGUCGCGGCCCCUGUCAGAUUCGGGUGAAUCUGCGAAUUCUGCUGU [G1U U46G]: 0.0728; UGGGGCCACAGCAGAAGCGUUCACGUCGCGGCCCCUGUCAGAUUCAGGUGAAUCUGCGAAUUCUGCUGU [G1U U46A]: 0.123. For UGGGGCCACAGCAGAAGCGUUCACGUCGCGGCCCCUGUCAGAUUCUGUUGAAUCUGCGAAUUCUGCUGU [G1U G48U], the self-cleavage amounted to 0.079. Take UGGGGCCACAGCAGAAGCGUUCACGUCGCGGCCCCUGUCAGAUUCUGAUGAAUCUGCGAAUUCUGCUGU [G1U G48A]: the self-cleavage turned out to be 0.192. In the case of UGGGGCCACAGCAGAAGCGUUCACGUCGCGGCCCCUGUCAGAUUCUGCUGAAUCUGCGAAUUCUGCUGU [G1U G48C], the self-cleavage stood at 0.0782. Next, UGGGGCCACAGCAGAAGCGUUCACGUCGCGGCCCCUGUCAGAUUCUGGUGAAUCUGCGAAGUCUGCUGU [G1U U61G]: 0.208; UGGGGCCACAGCAGAAGCGUUCACGUCGCGGCCCCUGUCAGAUUCUGGUGAAUCUGCGAAAUCUGCUGU [G1U U61A]: 0.0989; UGGGGCCACAGCAGAAGCGUUCACGUCGCGGCCCCUGUCAGAUUCUGGUGAAUCUCCGAAUUCUGCUGU [G1U G56C]: 0.105.

For the variant UGGGGCCACAGCAGAAGCGUUCACGUCGCGGCCCCUGUCAGAUUCUGGUGAAUCUUCGAAUUCUGCUGU [G1U G56U], the self-cleavage came out at 0.108.

With UGGGCCCACAGCAGAAGCGUUCACGUCGCGGCCCCUGUCAGAUUCUGGUGAAUCUGCGAAUUCUGCUGU [G1U G5C], the self-cleavage was 0.0789. For UGGGGCCACAGCAGAAGCGUUCACGCCGCGGCCCCUGUCAGAUUCUGGUGAAUCUGCGAAUUCUGCUGU [G1U U26C], the self-cleavage stood at 0.0437.

For the variant UGGGGCCACAGCAGAAGCGUUCACGUCGCGGCCCCUGUCAGAUUCUGGUGAAUCGGCGAAUUCUGCUGU [G1U U55G], the self-cleavage is 0.118. The result for UGGGGCCACAGCAGAAGCGUUCACGUCGCGGCCCCUGUCAGAUUCUGGUGAAUCAGCGAAUUCUGCUGU [G1U U55A] reads 0.109; that for UGGGGCCACAGCAGAAGCGUUCACGUCGCGGCCCCUGUCAGAUUCUGGUGAAUCCGCGAAUUCUGCUGU [G1U U55C], 0.0608; that for UGGGGCCACAGCAAAAGCGUUCACGUCGCGGCCCCUGUCAGAUUCUGGUGAAUCUGCGAAUUCUGCUGU [G1U G14A], 0.118. On to UGGGGCCACAGCACAAGCGUUCACGUCGCGGCCCCUGUCAGAUUCUGGUGAAUCUGCGAAUUCUGCUGU [G1U G14C], for which the self-cleavage turned out to be 0.133. Next, UGGGGCCACAGCAGAAGCGUUCACGUCGCGGCCCCUGUCAGAUUCUGGUGAAUCUGCGAAUUCUACUGU [G1U G65A]: 0.0898.

On to UGGGGCCACAGCAGAAGCGUUCACGUCGCGGCCCCUGUCAGAUUCUGGUGAAUCUGCGAAUUCUCCUGU [G1U G65C], for which the self-cleavage was 0.0555. The result for UGGGGCCACAGCAGAAGCGUUCACGUCGCGGCCCCUGUCAGAUUCUGGUGAAUCUGCGAAUUCUUCUGU [G1U G65U] reads 0.0644; that for UGGGGCCACAGCAGAAGCGUUCACGUCGCGGCCCCUGGCAGAUUCUGGUGAAUCUGCGAAUUCUGCUGU [G1U U38G], 0.0202. Regarding UGGGGCCACAGCAGAAGCGUUCACGUCGCGGCCCCUGCCAGAUUCUGGUGAAUCUGCGAAUUCUGCUGU [G1U U38C], the self-cleavage was 0.0816. Next, UGGGGCCACAGCAGAAGCGUUCACGUCGCGGCCCCUGUCAGAUUCUGGGGAAUCUGCGAAUUCUGCUGU [G1U U49G]: 0.152; UGGGGCCACAGCAGAAGCGUUCACGUCGCGGCCCCUGUCAGAUUCUGGCGAAUCUGCGAAUUCUGCUGU [G1U U49C]: 0.0511; UGGGGCCACAGCAGAAGCGUUCACGUCGCGGCCCCUGUCAGAUUCUGGAGAAUCUGCGAAUUCUGCUGU [G1U U49A]: 0.124. For UGGGGCCACAGCAGAAGCGUUCACGUCGCGGCCCCUGUCAGAUUCUGGUGAAUCUGCGAAUUCUGAUGU [G1U C66A], the self-cleavage came to 0.0594.

With UGGGGCCACAGCAGAAGCGUUCACGUCGCGGCCCCUGUCAGAUUCUGGUGAAUCUGCGAAUUCUGGUGU [G1U C66G], the self-cleavage came to 0.0803.

As to UGGGGCCACAGCAGAAGCGAUCACGUCGCGGCCCCUGUCAGAUUCUGGUGAAUCUGCGAAUUCUGCUGU [G1U U20A], the self-cleavage was 0.042. Turning to UGCGGCCACAGCAGAAGCGUUCACGUCGCGGCCCCUGUCAGAUUCUGGUGAAUCUGCGAAUUCUGCUGU [G1U G3C], the self-cleavage was 0.0566. As for UGUGGCCACAGCAGAAGCGUUCACGUCGCGGCCCCUGUCAGAUUCUGGUGAAUCUGCGAAUUCUGCUGU [G1U G3U], the self-cleavage worked out at 0.0448.

On to UGAGGCCACAGCAGAAGCGUUCACGUCGCGGCCCCUGUCAGAUUCUGGUGAAUCUGCGAAUUCUGCUGU [G1U G3A], for which the self-cleavage was found to be 0.04. Take UGGGGCCACAGCAGAAGCGUUCACGUCGCGGCCCCUGUCAGAUUCUAGUGAAUCUGCGAAUUCUGCUGU [G1U G47A]: the self-cleavage stood at 0.117.

UGGGGCCACAGCAGAAGCGUUCACGUCGCGGCCCCUGUCAGAUUCUUGUGAAUCUGCGAAUUCUGCUGU [G1U G47U]: the self-cleavage was 0.14. Next, UGGGGCCACAGCAGAAGCGUUCACGUCGCGGCCCCUGUCAGAUCCUGGUGAAUCUGCGAAUUCUGCUGU [G1U U44C]: 0.106; UGGGGCCACAGCAGAAGCGUUCACGUCGCGGCCCCUGUCAGAUGCUGGUGAAUCUGCGAAUUCUGCUGU [G1U U44G]: 0.127.

For the variant UGGGGCCACAGCAGAAGCGUUCACGUCGCGGCCCCUGUCAGAUACUGGUGAAUCUGCGAAUUCUGCUGU [G1U U44A], the self-cleavage was found to be 0.0951. Turning to UGGGGCCACAGCAGAAGCGUCCACGUCGCGGCCCCUGUCAGAUUCUGGUGAAUCUGCGAAUUCUGCUGU [G1U U21C], the self-cleavage was determined as 0.119.

On to UGGGGCCACAGCAGAAGCGUGCACGUCGCGGCCCCUGUCAGAUUCUGGUGAAUCUGCGAAUUCUGCUGU [G1U U21G], for which the self-cleavage was 0.0804.
